B1: HDV Ribozyme (parent)
chain: GGCCGGCAUGGUCCCAGCCUCCUCGCUGGCGCCGGCUGGGCAACAUUCCGAGGGGACCGUCCCCUCGGUAAUGGCGAAUGGGACCCA

Variants of: B1
Experiment: self-cleavage, relative activity (ratio to wild type); higher = more cleavage; co-transcriptional

Row | Variant | self-cleavage
1 | C41G C84A | 0.508
2 | C57G A71U | 0.91
3 | G29U A70G | 0.0396
4 | C32A U65C | 0
5 | U12C C22U | 0.231
6 | C21U G34A | 0.0225
7 | A8U G73C | 0.0831
8 | U12C C24G | 0.119
9 | C24U U27G | 0.431
10 | C63A A87G | 0.946
11 | C4U G40A | 0.604
12 | G31C C58U | 0.339
13 | C41U U72G | 0.534
14 | C13G C22U | 0
15 | U65G G68A | 0.772
16 | C21U U69C | 0.138
17 | C49G A77G | 0.536
18 | C4G C48G | 0.485
19 | U23G G31U | 0.0639
20 | C24A G38C | 0.199
21 | G67U C84G | 0.609
22 | C30A A71G | 0.517
23 | G59U U60A | 1.21
24 | C61U A70G | 1.01

Row | Variant | self-cleavage
25 | C64U C75A | 0.242
26 | G5U U79A | 0.104
27 | G29C G73C | 0.095
28 | G68A A87U | 0.831
29 | G11A G25U | 0.0801
30 | G38C C58G | 0.237
31 | C14A G76A | 0.718
32 | C26U A78U | 0.743
33 | U37C G74C | 0.193
34 | G1U C44A | 0.479
35 | C36U U65C | 0.712
36 | A42G C63U | 0.633
37 | U23C G25U | 0.158
38 | C7U C26A | 0.91
39 | A70G | 0.969
40 | U9A G31A | 0.554
41 | G53U A87C | 0.984
42 | C21G C49A | 0
43 | G1U C14U | 0.434
44 | G34C A51U | 0.141
45 | G1A A87G | 0.141
46 | A78C A87C | 0.199
47 | C13A G54A | 0.117
48 | A16G G50U | 1.02

Row | Variant | self-cleavage
49 | G81C C84G | 0.256
50 | C13G C15A | 0.128
51 | A16U U37A | 0.0554
52 | C4U C14A | 0.519
53 | U20A C44U | 0
54 | C4U G17U | 0.136
55 | G59U C75U | 0.145
56 | U12C G54U | 0.415
57 | C18U G53U | 0.918
58 | C24G U46C | 0.106
59 | G25A C57A | 0.194
60 | C26U G80C | 0.554
61 | C21G G50U | 0.0594
62 | G31U G59A | 0.546
63 | A16C G74C | 0.185
64 | C14U G25A | 0.115
65 | C58U A83G | 0.681
66 | G40U A43C | 0.374
67 | C4A G17A | 0.0396
68 | A78G G82U | 0.295
69 | U27A C84A | 0.831
70 | G25A U60G | 0.125
71 | C44A U47A | 0.965
72 | C15U C26G | 0.867

Row | Variant | self-cleavage
73 | C22U G59U | 0.858
74 | G39C C57A | 0.141
75 | U37G G82U | 0.0773
76 | C4A A43C | 0
77 | C15A U60C | 0.538
78 | U72C A78C | 0.229
79 | A16U G82U | 1.06
80 | G50A C63A | 0.436
81 | U12G G38A | 0.0978
82 | U9G U69C | 1.25
83 | U20G A43C | 0.256
84 | G1A C14A | 0.0573
85 | C7U G28C | 0.237
86 | U20C C62U | 0.0875
87 | C15U C57A | 1.03
88 | C21A A70U | 0
89 | C4U C36G | 0.0707
90 | C30G C58A | 0.0386
91 | A51C A87U | 0.881
92 | G5C C15U | 0.356
93 | C15U A45G | 0.8
94 | U65A U72G | 0.399
95 | G55A C75A | 0.254
96 | G5A G28U | 0

Row | Variant | self-cleavage
97 | U46C G68A | 0.415
98 | G5C U65C | 0.222
99 | G1C C63U | 0.0898
100 | C24U G53U | 0.802
101 | U12C A43G | 0.0437
102 | G52C U72A | 0.872
103 | A42G G67C | 0.365
104 | C3A U20A | 0.0683
105 | A43U G50C | 0.492
106 | A16U G38C | 0
107 | C26A C86U | 0.735
108 | U27G G82A | 0.534
109 | C26G C48G | 1.02
110 | G17C C62G | 0.0723
111 | G5C C62G | 0.145
112 | G34U G68U | 0.0966
113 | G52U | 0.938
114 | G76U A78C | 0.219
115 | C49G C66A | 0.773
116 | G2A G76C | 0.225
117 | C30U G59U | 0.831
118 | U23C C75U | 0.0739
119 | G39U G55U | 0.677
120 | G38C U47G | 0.225

Row | Variant | self-cleavage
121 | A16C C36G | 0
122 | U12G C57G | 0.931
123 | C7A A16C | 0.277
124 | C41U G81A | 0.237
125 | G1C U12C | 0.175
126 | C86G A87C | 1.04
127 | G1C C84A | 0.166
128 | C64A | 0.908
129 | C30A A42U | 0.241
130 | C32G G40C | 0.0755
131 | U37C C49A | 1.31
132 | C19G U20G | 0.138
133 | C26G U60A | 1.05
134 | C36A G50A | 0.151
135 | G59C G81U | 0.415
136 | C18U C84U | 0.44
137 | U9C G28C | 0.0573
138 | A51G C85A | 0.673
139 | C49U G55U | 0.909
140 | C3G G29C | 0.0396
141 | G10C C44G | 0.415
142 | G29U A51G | 0.0692
143 | U9G U65A | 1.27
144 | U9A A78C | 0.359

Row | Variant | self-cleavage
145 | G28A C64U | 0.117
146 | C30U U69C | 0.796
147 | A8G G29A | 0
148 | C3U G81U | 0.187
149 | C22G A45C | 0.0489
150 | G35C A87G | 0.205
151 | C26G C49G | 0.87
152 | A51G A83U | 0.356
153 | C3A C75U | 0.128
154 | A77U C84G | 0.403
155 | G2U C75G | 0.0256
156 | C30A G40C | 0.0277
157 | C13U G40A | 0.365
158 | U23C G31C | 0.141
159 | U20G G53C | 0.262
160 | G73U A78C | 0.173
161 | C44G A78G | 0.246
162 | C48U G81C | 0.381
163 | C3A U69G | 0.567
164 | G1C U47C | 0.399
165 | C30G A56G | 0.0941
166 | C63A A77U | 0.356
167 | C44G G68A | 0.677

Source: the RNAGym collection of RNA variant scans (doi:10.7554/elife.80360)
